The source of these data is patent publication US20210054067A1 (ALETHIA BIOTHERAPEUTICS, published 2021).

For test [1], the target named is T1, recombinant human KAAG1 (purified protein) (human, UniProt Q9UBP8 1-84, limits assumed).
T1 construct: also called gel filtration purified KAAG1
T1 sequence: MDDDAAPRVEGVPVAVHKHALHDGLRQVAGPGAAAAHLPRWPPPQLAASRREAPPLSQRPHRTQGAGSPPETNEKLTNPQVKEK
As to the kind of experiment: surface plasmon resonance (told in the summary).

The target of test [2] is T1, recombinant human KAAG1 (purified …). As to the kind of experiment: SPR as above; KD relative to LcHc. On the procedure:
Immediately after the activation, a 13 μg/mL solution of anti-human IgG Fc fragment specific in 10 mM NaOAc pH 4.5 was injected in the analyte direction at a flow rate of 25 μL/min until approximately 8000 resonance units (RUs) were immobilized. Remaining active groups were quenched by a 300 s injection of 1M ethanolamine at 30 μL/min in the analyte direction, and this also ensures mock-activated interspots are created for blank referencing. The screening of the 3A4 variants for binding to KAAG1 occurred in two steps: an indirect capture of 3A4 variants from cell supernatant onto the anti-human IgG Fc fragment specific surface in the ligand direction (vertical) followed by a KAAG1 injection in the analyte direction. Firstly, one buffer injection for 30 s at 100 uL/min in the ligand direction was used to stabilize the baseline. […] Four to five 3A4 variants along with wild-type 3A4 were simultaneously injected in individual ligand channels for 240 s at flow 25 μL/min. […] The first ligand channel was left empty to use as a blank control if required. This 3A4 capture step was immediately followed by two buffer injections in the analyte direction to stabilize the baseline, and then the gel filtration purified KAAG1 was injected. For a typical screen, five KAAG1 concentrations (8, 2.66, 0.89, 0.29, and 0.098 nM) and buffer control were simultaneously injected in individual analyte channels at 50 μL/min for 120 s with a 600 s dissociation phase, resulting in a set of binding sensorgrams with a buffer reference for each of the captured 3A4 variants. The anti-human IgG Fc fragment specific—3A4 complexes were regenerated by a 18 s pulse of 0.85% phosphoric acid for 18 s at 100 μL/min to prepare the anti-human IgG Fc fragment specific surface for the next injection cycle.
Sensorgrams were aligned and double-referenced using the buffer blank injection and interspots, and the resulting sensorgrams were analyzed using ProteOn Manager software v3.0.

Test [3] has the same target. Nature of the test: SPR (ProteOn XPR36). On the procedure:
Remaining active groups were quenched by a 300 s injection of 1M ethanolamine at 30 μL/min in the analyte direction, and this also ensures mock-activated interspots are created for blank referencing. The screening of the 3A4 variants for binding to KAAG1 occurred in two steps: an indirect capture of 3A4 variants from cell supernatant onto the anti-human IgG Fc fragment specific surface in the ligand direction (vertical) followed by a KAAG1 injection in the analyte direction. Firstly, one buffer injection for 30 s at 100 uL/min in the ligand direction was used to stabilize the baseline. […] Four to five 3A4 variants along with wild-type 3A4 were simultaneously injected in individual ligand channels for 240 s at flow 25 μL/min. […] The first ligand channel was left empty to use as a blank control if required. […]
Sensorgrams were aligned and double-referenced using the buffer blank injection and interspots, and the resulting sensorgrams were analyzed using ProteOn Manager software v3.0. The kinetic and affinity values were determined by fitting the referenced sensorgrams to the 1:1 Langmuir binding model using local Rₘₐₓ, and affinity constants (KD M) were derived from the resulting rate constants (kd s⁻¹/kₐ M⁻¹s⁻¹).

B1: 3G10 anti-KAAG1 antibody (antibody, V domains shown)
VH: EIQLQQSGPELVKPGASVKISCKASGYTFTDNYMNWVKQSHGKSLEWIGDINPYYGTTTYNQKFKGKATLTVDKSSRTAYMELRGLTSEDSAVYYCARDDWFDYWGQGTLVTVSA
VL: DVLMTQTPRSLSVSLGDQASISCRSSQSLLHSNGNTYLEWYLQKPGQPPKVLIYKVSNRFSGVPDRFSGSGSGTDFTLKISGVEAEDLGVYYCFQGSHVPLTFGAGTKLELK
With B1, in test [1], the equilibrium dissociation constant (Kd) is more than 200 nM and the “fold lower affinity than 3A4” value was 20 fold.

B2: humanized 3A4 antibody Lh1Hh2 (antibody, human IgG1, kappa, V domains shown)
VH: QIQLVQSGAEVKKPGASVKVSCKASGYTFTDDYMSWVRQAPGQGLEWMGDINPYNGDTNYNQKFKGRVTITADKSTSTAYMELSSLRSEDTAVYYCARDPGAMDYWGQGTLVTVSS
VL: DIVMTQTPLSLPVTPGEPASISCRSSQSLLHSNGNTYLEWYLQKPGQSPQLLIYTVSNRFSGVPDRFSGSGSGTDFTLKISRVEAEDVGVYYCFQGSHVPLTFGQGTKLEIKR
notes: human IgG1 kappa
With B2, the Fold diff. in test [2] is 13.2 fold.

B3: humanized 3A4 antibody Lh1Hh1 (antibody, human IgG1, kappa, V domains shown)
VH: QVQLVQSGAEVKKPGASVKVSCKASGYTFTDDYMSWVRQAPGQGLEWMGDINPYNGDTNYNQKFKGRVTITADTSTSTAYMELSSLRSEDTAVYYCARDPGAMDYWGQGTLVTVSS
VL: DIVMTQTPLSLPVTPGEPASISCRSSQSLLHSNGNTYLEWYLQKPGQSPQLLIYTVSNRFSGVPDRFSGSGSGTDFTLKISRVEAEDVGVYYCFQGSHVPLTFGQGTKLEIKR
notes: 100% humanized frameworks; human IgG1 kappa; also called H1L1
Turning to B3, in test [2], the Fold diff. came out at 29.6 fold. Also, the “fold difference in binding affinity against the best variant H4L2” value in test [3] was 4 fold.

B4: humanized 3A4 antibody Lh1Hh3 (antibody, human IgG1, kappa, V domains shown)
VH: QIQLVQSGAEVKKPGASVKVSCKASGYTFTDDYMSWVRQAPGQGLEWIGDINPYNGDTNYNQKFKGRATLTVDKSTSTAYMELSSLRSEDTAVYYCARDPGAMDYWGQGTLVTVSS
VL: DIVMTQTPLSLPVTPGEPASISCRSSQSLLHSNGNTYLEWYLQKPGQSPQLLIYTVSNRFSGVPDRFSGSGSGTDFTLKISRVEAEDVGVYYCFQGSHVPLTFGQGTKLEIKR
notes: human IgG1 kappa
Consider B4, for which, in test [2], the Fold diff. was 9.3 fold.

B5: humanized 3A4 antibody Lh2Hh2 (antibody, human IgG1, kappa, V domains shown)
VH: QIQLVQSGAEVKKPGASVKVSCKASGYTFTDDYMSWVRQAPGQGLEWMGDINPYNGDTNYNQKFKGRVTITADKSTSTAYMELSSLRSEDTAVYYCARDPGAMDYWGQGTLVTVSS
VL: DVVMTQTPLSLPVTPGEPASISCRSSQSLLHSNGNTYLEWYLQKPGQSPKLLIYTVSNRFSGVPDRFSGSGSGTDFTLKISRVEAEDVGVYYCFQGSHVPLTFGQGTKLEIKR
notes: human IgG1 kappa
With B5, the Fold diff. in test [2] was 15.3 fold.

B6: humanized 3A4 antibody Lh1Hh4 (antibody, human IgG1, kappa, V domains shown)
VH: QIQLVQSGAEVKKPGASVKVSCKASGYTFTDDYMSWVKQAPGQGLEWIGDINPYNGDTNYNQKFKGKATLTVDKSTSTAYMELSSLRSEDTAVYYCARDPGAMDYWGQGTLVTVSS
VL: DIVMTQTPLSLPVTPGEPASISCRSSQSLLHSNGNTYLEWYLQKPGQSPQLLIYTVSNRFSGVPDRFSGSGSGTDFTLKISRVEAEDVGVYYCFQGSHVPLTFGQGTKLEIKR
notes: human IgG1 kappa
Turning to B6, the Fold diff. in test [2] amounted to 9.3 fold.

B7: humanized 3A4 antibody Lh2Hh1 (antibody, human IgG1, kappa, V domains shown)
VH: QVQLVQSGAEVKKPGASVKVSCKASGYTFTDDYMSWVRQAPGQGLEWMGDINPYNGDTNYNQKFKGRVTITADTSTSTAYMELSSLRSEDTAVYYCARDPGAMDYWGQGTLVTVSS
VL: DVVMTQTPLSLPVTPGEPASISCRSSQSLLHSNGNTYLEWYLQKPGQSPKLLIYTVSNRFSGVPDRFSGSGSGTDFTLKISRVEAEDVGVYYCFQGSHVPLTFGQGTKLEIKR
notes: human IgG1 kappa
As for B7, the Fold diff. in test [2] amounted to 21.3 fold.

B8: humanized 3A4 antibody Lh2Hh4 (antibody, human IgG1, kappa, V domains shown)
VH: QIQLVQSGAEVKKPGASVKVSCKASGYTFTDDYMSWVKQAPGQGLEWIGDINPYNGDTNYNQKFKGKATLTVDKSTSTAYMELSSLRSEDTAVYYCARDPGAMDYWGQGTLVTVSS
VL: DVVMTQTPLSLPVTPGEPASISCRSSQSLLHSNGNTYLEWYLQKPGQSPKLLIYTVSNRFSGVPDRFSGSGSGTDFTLKISRVEAEDVGVYYCFQGSHVPLTFGQGTKLEIKR
notes: human IgG1 kappa; 10 mouse framework residues retained; also called H4L2
For B8, in test [2], the Fold diff. is 6.4 fold.

B9: humanized 3A4 antibody Lh2Hh3 (antibody, human IgG1, kappa, V domains shown)
VH: QIQLVQSGAEVKKPGASVKVSCKASGYTFTDDYMSWVRQAPGQGLEWIGDINPYNGDTNYNQKFKGRATLTVDKSTSTAYMELSSLRSEDTAVYYCARDPGAMDYWGQGTLVTVSS
VL: DVVMTQTPLSLPVTPGEPASISCRSSQSLLHSNGNTYLEWYLQKPGQSPKLLIYTVSNRFSGVPDRFSGSGSGTDFTLKISRVEAEDVGVYYCFQGSHVPLTFGQGTKLEIKR
notes: human IgG1 kappa
As for B9, the Fold diff. in test [2] came to 14.3 fold.

B10: 3D3 anti-KAAG1 antibody (chimeric 3D3) (antibody, V domains shown)
VH: EVQLQQSVAELVRPGASVTLSCKASGYIFTDYEIHWVKQTPVHGLEWIGVIDPETGNTAFNQKFKGKATLTADISSSTAYMELSSLTSEDSAVYYCMGYSDYWGQGTTLTVSS
VL: DIVMTQSPSSLAVSIGQKVTMNCKSSQSLLNSNFQKNFLAWYQQKPGQSPKLLIYFASTRESSIPDRFIGSGSGTDFTLTISSVQAEDLADYFCQQHYSTPLTFGAGTKLELK
For the molecule B10, in test [1], the Kd is more than 200 nM and the “fold lower affinity than 3A4” value turned out to be 20 fold.

As a reminder, the Kd is the constant that tells how readily two partners part at equilibrium.
